Assay results from article PMC10397247.
Where two headings read alike, the source gives them in different places. Values belong to the binder of their own block, whether it stands above or below them.

Columns and labels:
[1] = biological target: T1, O9-bN; experiment: two-hybrid library CCNG1;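 also: natural log of median RNA to DNA barcode read ratio; higher means stronger binding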
T1 chain: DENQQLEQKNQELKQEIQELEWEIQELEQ

[2] = biological target: T2, 4H462-bH; experiment: two-hybrid library CCNG1;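 also: natural log of median RNA to DNA barcode read ratio; higher means stronger binding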
T2 chain: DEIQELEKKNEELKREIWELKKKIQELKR

[3] = biological target: T3, 4H967-bH; experiment: two-hybrid library CCNG1;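 also: natural log of median RNA to DNA barcode read ratio; higher means stronger binding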
T3 chain: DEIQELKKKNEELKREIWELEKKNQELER

[4] = biological target: T4, 4H72-bH; experiment: two-hybrid library CCNG1;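 also: natural log of median RNA to DNA barcode read ratio; higher means stronger binding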
T4 chain: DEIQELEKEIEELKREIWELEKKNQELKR

[5] = biological target: T5, 4H953-bH; experiment: two-hybrid library CCNG1;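 also: natural log of median RNA to DNA barcode read ratio; higher means stronger binding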
T5 chain: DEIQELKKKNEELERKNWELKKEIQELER

[6] = biological target: T6, 4H906-bN; experiment: two-hybrid library CCNG1;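 also: natural log of median RNA to DNA barcode read ratio; higher means stronger binding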
T6 chain: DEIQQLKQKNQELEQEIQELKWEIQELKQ

[7] = biological target: T7, 4H918-bH; experiment: two-hybrid library CCNG1
T7 chain: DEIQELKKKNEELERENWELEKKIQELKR

[8] = biological target: T8, 4H607-bH; experiment: two-hybrid library CCNG1
T8 chain: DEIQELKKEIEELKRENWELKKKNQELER

[9] = biological target: T9, 4H883-bH; experiment: two-hybrid library CCNG1
T9 chain: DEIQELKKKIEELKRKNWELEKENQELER

[10] = biological target: T10, 4H687-bH; experiment: two-hybrid library CCNG1
T10 chain: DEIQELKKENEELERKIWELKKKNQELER

[11] = biological target: T11, 4H568-bH; experiment: two-hybrid library CCNG1
T11 chain: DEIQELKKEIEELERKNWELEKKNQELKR

[12] = biological target: T12, 4H797-bH; experiment: two-hybrid library CCNG1
T12 chain: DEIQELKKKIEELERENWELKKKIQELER

[13] = biological target: T13, 4H2354-AA; experiment: two-hybrid library CCmax
T13 chain: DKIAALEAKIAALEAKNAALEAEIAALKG

[14] = biological target: T14, 4H993-AA; experiment: two-hybrid library CCmax; settings: mean of both orientations
T14 chain: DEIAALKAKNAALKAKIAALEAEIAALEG

[15] = biological target: T15, 4H2754-AA; experiment: two-hybrid library CCmax; settings: mean of both orientations
T15 chain: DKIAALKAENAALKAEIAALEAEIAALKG

[16] = biological target: T16, 4H2944-AA; experiment: two-hybrid library CCmax; settings: mean of both orientations
T16 chain: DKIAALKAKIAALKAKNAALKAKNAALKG

[17] = biological target: T17, 4H429-AA; experiment: two-hybrid library CCmax; settings: mean of both orientations
T17 chain: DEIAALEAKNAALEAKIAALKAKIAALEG

[18] = biological target: T18, 4H2729-AA; experiment: two-hybrid library CCmax; settings: mean of both orientations
T18 chain: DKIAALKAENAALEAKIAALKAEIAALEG

[19] = biological target: T19, 4H3427-AA; experiment: two-hybrid library CCmax; settings: mean of both orientations
T19 chain: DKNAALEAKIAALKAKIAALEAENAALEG

[20] = biological target: T20, 4H566-AA; experiment: two-hybrid library CCmax; settings: mean of both orientations
T20 chain: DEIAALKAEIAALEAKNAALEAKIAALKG

[21] = biological target: T21, 4H678-AA; experiment: two-hybrid library CCmax; settings: mean of both orientations
T21 chain: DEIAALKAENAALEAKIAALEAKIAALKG

[22] = biological target: T22, 4H3655-AA; experiment: two-hybrid library CCmax; settings: mean of both orientations
T22 chain: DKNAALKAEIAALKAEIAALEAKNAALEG

[23] = biological target: T23, 4H454-AA; experiment: two-hybrid library CCmax; settings: mean of both orientations
T23 chain: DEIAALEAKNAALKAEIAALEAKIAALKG

[24] = biological target: T24, 4H717-AA; experiment: two-hybrid library CCmax; settings: mean of both orientations
T24 chain: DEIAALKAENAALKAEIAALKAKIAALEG

[25] = biological target: T25, 4H2837-AA; experiment: two-hybrid library CCmax; settings: mean of both orientations
T25 chain: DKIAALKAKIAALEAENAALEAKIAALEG

[26] = biological target: T26, 4H906-AA; experiment: two-hybrid library CCmax; settings: mean of both orientations
T26 chain: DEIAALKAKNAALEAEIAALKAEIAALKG

[27] = biological target: T27, 4H3343-AA; experiment: two-hybrid library CCmax; settings: mean of both orientations
T27 chain: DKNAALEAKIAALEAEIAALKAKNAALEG

[28] = biological target: T28, 4H605-AA; experiment: two-hybrid library CCmax; settings: mean of both orientations
T28 chain: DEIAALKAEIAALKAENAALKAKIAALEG

[29] = biological target: T29, 4H881-AA; experiment: two-hybrid library CCmax; settings: mean of both orientations
T29 chain: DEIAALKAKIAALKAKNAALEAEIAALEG

[30] = biological target: T30, 4H2575-AA; experiment: two-hybrid library CCmax; settings: mean of both orientations
T30 chain: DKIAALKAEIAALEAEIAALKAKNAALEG

[31] = biological target: T31, 4H317-AA; experiment: two-hybrid library CCmax; settings: mean of both orientations
T31 chain: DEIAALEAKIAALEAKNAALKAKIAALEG

[32] = biological target: T32, 4H2949-AA; experiment: two-hybrid library CCmax; settings: mean of both orientations
T32 chain: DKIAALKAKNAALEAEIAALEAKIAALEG

[33] = biological target: T33, 4H2642-AA; experiment: two-hybrid library CCmax; settings: mean of both orientations
T33 chain: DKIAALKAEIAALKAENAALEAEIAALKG

[34] = biological target: T34, 4H3606-AA; experiment: two-hybrid library CCmax; settings: mean of both orientations
T34 chain: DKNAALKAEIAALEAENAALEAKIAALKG

[35] = biological target: T35, 4H2883-AA; experiment: two-hybrid library CCmax; settings: mean of both orientations
T35 chain: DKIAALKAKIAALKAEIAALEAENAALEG

[36] = biological target: T36, 4H48-AA; experiment: two-hybrid library CCmax; settings: mean of both orientations
T36 chain: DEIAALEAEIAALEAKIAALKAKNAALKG

[37] = biological target: T37, 4H3844-AA; experiment: two-hybrid library CCmax; settings: mean of both orientations
T37 chain: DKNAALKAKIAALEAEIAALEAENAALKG

[38] = biological target: T38, 4H2393-AA; experiment: two-hybrid library CCmax; settings: mean of both orientations
T38 chain: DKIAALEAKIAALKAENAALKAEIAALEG

[39] = biological target: T39, 4H780-AA; experiment: two-hybrid library CCmax; settings: mean of both orientations
T39 chain: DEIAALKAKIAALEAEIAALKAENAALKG

[40] = biological target: T40, 4H335-AA; experiment: two-hybrid library CCmax; settings: mean of both orientations
T40 chain: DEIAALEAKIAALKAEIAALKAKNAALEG

[41] = biological target: T41, 4H3627-AA; experiment: two-hybrid library CCmax; settings: mean of both orientations
T41 chain: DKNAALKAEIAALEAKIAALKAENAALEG

[42] = biological target: T42, 4H3112-AA; experiment: two-hybrid library CCmax; settings: mean of both orientations
T42 chain: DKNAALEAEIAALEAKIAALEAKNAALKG

[43] = biological target: T43, 4H2617-AA; experiment: two-hybrid library CCmax; settings: mean of both orientations
T43 chain: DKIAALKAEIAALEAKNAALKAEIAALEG

[44] = biological target: T44, 4H2505-AA; experiment: two-hybrid library CCmax; settings: mean of both orientations
T44 chain: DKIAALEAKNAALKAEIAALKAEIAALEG

[45] = biological target: T45, 4H342-AA; experiment: two-hybrid library CCmax; settings: mean of both orientations
T45 chain: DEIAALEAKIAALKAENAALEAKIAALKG

[46] = biological target: T46, 4H3921-AA; experiment: two-hybrid library CCmax; settings: mean of both orientations
T46 chain: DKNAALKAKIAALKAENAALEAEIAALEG

[47] = biological target: T47, 4H2466-AA; experiment: two-hybrid library CCmax
T47 chain: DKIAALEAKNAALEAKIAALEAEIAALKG

[48] = biological target: T48, 4H794-AA; experiment: two-hybrid library CCmax; settings: mean of both orientations
T48 chain: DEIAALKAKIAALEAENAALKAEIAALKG

[49] = biological target: T49, 4H3631-AA; experiment: two-hybrid library CCmax; settings: mean of both orientations
T49 chain: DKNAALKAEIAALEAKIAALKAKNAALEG

[50] = biological target: T50, 4H340-AA; experiment: two-hybrid library CCmax; settings: mean of both orientations
T50 chain: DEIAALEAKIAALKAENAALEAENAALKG

[51] = biological target: T51, 4H3588-AA; experiment: two-hybrid library CCmax; settings: mean of both orientations
T51 chain: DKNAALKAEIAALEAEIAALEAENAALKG

[52] = biological target: T52, 4H3413-AA; experiment: two-hybrid library CCmax; settings: mean of both orientations
T52 chain: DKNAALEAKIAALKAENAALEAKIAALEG

[53] = biological target: T53, 4H3162-AA; experiment: two-hybrid library CCmax; settings: mean of both orientations
T53 chain: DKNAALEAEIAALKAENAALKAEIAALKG

[54] = biological target: T54, 4H32-AA; experiment: two-hybrid library CCmax; settings: mean of both orientations
T54 chain: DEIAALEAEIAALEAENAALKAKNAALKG

[55] = biological target: T55, 4H3865-AA; experiment: two-hybrid library CCmax; settings: mean of both orientations
T55 chain: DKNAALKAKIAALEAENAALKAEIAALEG

[56] = biological target: T56, 4H982-AA; experiment: two-hybrid library CCmax; settings: mean of both orientations
T56 chain: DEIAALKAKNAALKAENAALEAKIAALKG

[57] = biological target: T57, 4H2648-AA; experiment: two-hybrid library CCmax
T57 chain: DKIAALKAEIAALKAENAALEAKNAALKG

[58] = biological target: T58, 4H697-AA; experiment: two-hybrid library CCmax; settings: mean of both orientations
T58 chain: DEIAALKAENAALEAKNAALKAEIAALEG

[59] = biological target: T59, 4H384-AA; experiment: two-hybrid library CCmax; settings: mean of both orientations
T59 chain: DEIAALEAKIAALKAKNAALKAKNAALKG

[60] = biological target: T60, 4H3378-AA; experiment: two-hybrid library CCmax; settings: mean of both orientations
T60 chain: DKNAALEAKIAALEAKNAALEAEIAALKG

[61] = biological target: T61, 4H3056-AA; experiment: two-hybrid library CCmax; settings: mean of both orientations
T61 chain: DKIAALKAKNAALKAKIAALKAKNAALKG

[62] = biological target: T62, 4H3133-AA; experiment: two-hybrid library CCmax; settings: mean of both orientations
T62 chain: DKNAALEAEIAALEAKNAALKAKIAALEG

[63] = biological target: T63, 4H3697-AA; experiment: two-hybrid library CCmax; settings: mean of both orientations
T63 chain: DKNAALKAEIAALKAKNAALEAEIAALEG

[64] = biological target: T64, 4H3718-AA; experiment: two-hybrid library CCmax; settings: mean of both orientations
T64 chain: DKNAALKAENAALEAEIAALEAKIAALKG

[65] = biological target: T65, 4H2907-AA; experiment: two-hybrid library CCmax; settings: mean of both orientations
T65 chain: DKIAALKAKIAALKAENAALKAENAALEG

[66] = biological target: T66, O8-bN; experiment: two-hybrid library CCNG1
T66 chain: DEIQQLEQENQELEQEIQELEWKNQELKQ

Binder: DEIQELEKKNEELKREIWELKKKIQELKR [4H462-bH]
interaction score [2]: 0.452
interaction score [3]: -0.847
interaction score [4]: 0.335
interaction score [5]: -0.0754
interaction score [6]: -2.48
interaction score [7]: 0.264
interaction score [8]: -0.483
interaction score [9]: -0.231
interaction score [10]: 1.31
interaction score [11]: 0.229
interaction score [12]: -0.33

Binder: DKIAALEAKIAALEAKNAALEAEIAALKG [4H2354-AA]
interaction score [13]: 2.28
interaction score [14]: -1.38
interaction score [15]: -1.42
interaction score [16]: -1.22
interaction score [17]: -1.58
interaction score [18]: -1.03
interaction score [19]: -1.67
interaction score [20]: 0.225
interaction score [21]: -1.46
interaction score [22]: -1.28
interaction score [23]: -0.846
interaction score [24]: -1.79
interaction score [25]: -0.0493
interaction score [26]: -1.21
interaction score [27]: -1.47
interaction score [28]: -1.45
interaction score [29]: -0.238
interaction score [30]: -1
interaction score [31]: 0.391
interaction score [32]: -1.56
interaction score [33]: -0.757
interaction score [34]: -0.995
interaction score [35]: -1.31
interaction score [36]: -1.39
interaction score [37]: -1.42
interaction score [38]: -0.967
interaction score [39]: -1.35
interaction score [40]: -1.35
interaction score [41]: -1.59
interaction score [42]: -1.26
interaction score [43]: 0.763
interaction score [44]: 0.629
interaction score [45]: 1.11
interaction score [46]: -2.02
interaction score [47]: -1.18
interaction score [48]: -1.09

Binder: DEIQQLEQENQELEQEIQELEWKNQELKQ [O8-bN]
interaction score [66]: 0.371
interaction score [1]: -0.872

Next, values leading:

interaction score ([1]; mean of both orientations): -1.9
Binder: DENQQLEQKNQELKQEIQELEWEIQELEQ [O9-bN]

interaction score [49]: -0.735
interaction score [50]: 1.21
interaction score [51]: 0.769
interaction score [52]: -1.8
interaction score [53]: -1.38
interaction score [54]: 1.9
interaction score [55]: -1.49
interaction score [56]: -0.309
interaction score [57]: 0.455
interaction score [34]: -1.35
interaction score [58]: -1.14
interaction score [59]: 1.28
interaction score [60]: -1.8
interaction score [61]: -1.84
interaction score [62]: -0.651
interaction score [63]: -1.06
interaction score [64]: -1.35
interaction score [65]: 1.45
Binder: DKIAALKAEIAALKAENAALEAKNAALKG [4H2648-AA]
